From patent publication US20250340857A1 (SEISMIC THERAPEUTIC, published 2025)
Residue numbers refer to the chain shown, from its start.

B1: FP167 (Fc fusion)
chain 1: DKTHTCPPCPAPEAAGAPSVFLFPPKPKDTLMISRTPEVTCVVVDVSHEDPEVKFNWYVDGVEVHNAKTKPREEQQNSTYRVVSVLTVLHQDWLNGKEYKCKVSNKALKAPIEKTISKAKGQPREPQVYTLPPSRDELTKNQVSLWCLVKGFYPSDIAVEWESNGQPENNYKTTPPVLDSDGSFFLYSKLTVDKSRWQQGNVFSCSVMHEALHNHYTQKSLSLSPGGSSAPGSSAPGSSAPTALGRRKAEDRIKETLWADGVKIDEKDFEHIKSSHEDYFAVEYGKGSGYYDVNKKMDSEDTALCVGAVVTNMFHWWVDQNRENIEKFKKQDPENNGVMKFEGVKEATVDELNEFYRDNRDNYADQSRFFDLIKKHFGNKALNPEELFELYFNGFYYGSSHRYIEDNEPAQNNLFSKVLENNKLLNPERSYGIDGFSNNVINALKSHKVLGLVYTTPLRYRHIISMWGADIDQDGKVKAIYVTDSDDREITFNDNSKRRIGMIRYDVLVDDNGNIRFTGKGATHKEEGAIYAGLYSLSRGDEVWEDYFKKYPEVQENL
chain 2: DKTHTCPPCPAPEAAGAPSVFLFPPKPKDTLMISRTPEVTCVVVDVSHEDPEVKFNWYVDGVEVHNAKTKPREEQQNSTYRVVSVLTVLHQDWLNGKEYKCKVSNKALKAPIEKTISKAKGQPREPQVYTLPPSRDELTKNQVSLSCAVKGFYPSDIAVEWESNGQPENNYKTTPPVLDSDGSFFLVSKLTVDKSRWQQGNVFSCSVMHEALHNHYTQKSLSLSPG
B2: FP170 (Fc fusion)
chain 1: DKTHTCPPCPAPEAAGAPSVFLFPPKPKDTLMISRTPEVTCVVVDVSHEDPEVKFNWYVDGVEVHNAKTKPREEQQNSTYRVVSVLTVLHQDWLNGKEYKCKVSNKALKAPIEKTISKAKGQPREPQVYTLPPSRDELTKNQVSLWCLVKGFYPSDIAVEWESNGQPENNYKTTPPVLDSDGSFFLYSKLTVDKSRWQQGNVFSCSVMHEALHNHYTQKSLSLSPGGGGSGGGGSGGGGSTALGRRKAEDRIKETLWADGVKIDEKDFEHIKSSHEDYFAVEYGKGSGYYDVNKKMDSEDSALCVGAVVTNMFHWWVDQNRENIEKFKKQDPENNGVMKFEGVKEATVDELNEFYRDNRDNYADQSRFFDLIKKHFGNKALNPEELFELYFNGFYYGSSHRYIEDNEPAQNNLFSKVLENNKLLNPERSYGIDGFSNNVINALKSHKVLGLVYTTPLRYRHIISMWGADIDQDGKVKAIYVTDSDDREITFNDNSKRRIGMIRYDVLVDDNGNIRFTGKGATHKEEGAIYAGLYSLSRGDEVWEDYFKKYPEVQENL
chain 2: B1 chain 2
B3: FP171 (Fc fusion)
chain 1: B2 chain 1 with M208L, N214S
chain 2: B1 chain 2 with M208L, N214S
B4: FP175 (Fc fusion)
chain 1: B1 chain 1 with M208L, N214S, T302S
chain 2: B1 chain 2 with M208L, N214S
B5: FP174 (Fc fusion)
chain 1: B1 chain 1 with T302S
chain 2: B1 chain 2
B6: FP168 (Fc fusion)
chain 1: B1 chain 1 with M208L, N214S
chain 2: B1 chain 2 with M208L, N214S

Target: Human IgE antibody (human)
Experiment: cell-based or functional assay

Row | Binder | EC50 MSD IgE [nM] | EC50 CE-SDS IgE [nM]
1 | B1 | 0.721 | 
2 | B2 | 1.02 | 14.6
3 | B3 | 1.35 | 17.8
4 | B4 | 1.88 | 179
5 | B5 | 0.511 | 12.2
6 | B6 | 0.637 | 17.6
